Experimental data from PMC2575085 (Nature structural & molecular biology, 2008).
Where “and” joins values, the source holds several entries; their conditions need not be identical. Equal values may be shown once. Read-outs that look alike come from different tables or passages of the source.

Columns and labels:
Test in all cases: EPR
[1] = target: Sso1pHT spin-labeled cysteine mutant at position 269 (yeast) (UniProt P32867)
[2] = target: Sso1pHT spin-labeled cysteine mutant at position 269 (yeast) (UniProt P32867); remark: listed apart in the source
[3] = target: Sso1pHT spin-labeled cysteine mutant at position 272 (yeast) (UniProt P32867)
[4] = target: Sso1pHT spin-labeled cysteine mutant at position 272 (yeast) (UniProt P32867); remark: listed apart in the source
[5] = target: Sso1pHT spin-labeled cysteine mutant at position 284 (yeast) (UniProt P32867)
[6] = target: Sso1pHT spin-labeled cysteine mutant at position 284 (yeast) (UniProt P32867); remark: listed apart in the source
EPR = target: the molecule itself

Sso1pHT spin-labeled cysteine mutant at position 269 (from UniProt P32867 185-290) (domain or fragment)
stoichiometry N [1]: > 3
ln K (equilibrium constant of nM to Mn, concentration as protein:lipid ratio) [2]: 18.4
stoichiometry N [2]: 4

Sso1pHT spin-labeled cysteine mutant at position 272 (from UniProt P32867 185-290) (domain or fragment)
stoichiometry N [3]: > 3
ln K (equilibrium constant of nM to Mn, concentration as protein:lipid ratio) [4]: 18.4
stoichiometry N [4]: 4

Sso1pHT spin-labeled cysteine mutant at position 284 (from UniProt P32867 185-290) (domain or fragment)
stoichiometry N [5]: > 3
ln K (equilibrium constant of nM to Mn, concentration as protein:lipid ratio) [6]: 18.4
stoichiometry N [6]: 4

B1: Sso1pHT I273C, spin-labeled (domain or fragment, yeast, UniProt P32867 185-290, looked up)
chain: EAKTALAEVQARHQELLKLEKSMAELTQLFNDMEELVIEQQENVDVIDKNVEDAQLDVEQGVGHTDKAVKSARKARKNKIRAWLIVFACIVVVVVVVVVPAVVKTR
modifications: MTSSL nitroxide spin label on the cysteine at 273
ln K (equilibrium constant of nM to Mn, concentration as protein:lipid ratio) (EPR): 18.4
stoichiometry N (EPR): 4 and ≥ 3
